How the values were obtained:
Test in all cases: PIE-FCCS
Plexin A4 = Plexin A4 (human, UniProt Q9HCM2 24-1894)
Plexin A4ΔSema = target: T1, Plexin A4ΔSema (human, UniProt Q9HCM2 24-1894, deletes residues 39-506)
T1 sequence (looked up): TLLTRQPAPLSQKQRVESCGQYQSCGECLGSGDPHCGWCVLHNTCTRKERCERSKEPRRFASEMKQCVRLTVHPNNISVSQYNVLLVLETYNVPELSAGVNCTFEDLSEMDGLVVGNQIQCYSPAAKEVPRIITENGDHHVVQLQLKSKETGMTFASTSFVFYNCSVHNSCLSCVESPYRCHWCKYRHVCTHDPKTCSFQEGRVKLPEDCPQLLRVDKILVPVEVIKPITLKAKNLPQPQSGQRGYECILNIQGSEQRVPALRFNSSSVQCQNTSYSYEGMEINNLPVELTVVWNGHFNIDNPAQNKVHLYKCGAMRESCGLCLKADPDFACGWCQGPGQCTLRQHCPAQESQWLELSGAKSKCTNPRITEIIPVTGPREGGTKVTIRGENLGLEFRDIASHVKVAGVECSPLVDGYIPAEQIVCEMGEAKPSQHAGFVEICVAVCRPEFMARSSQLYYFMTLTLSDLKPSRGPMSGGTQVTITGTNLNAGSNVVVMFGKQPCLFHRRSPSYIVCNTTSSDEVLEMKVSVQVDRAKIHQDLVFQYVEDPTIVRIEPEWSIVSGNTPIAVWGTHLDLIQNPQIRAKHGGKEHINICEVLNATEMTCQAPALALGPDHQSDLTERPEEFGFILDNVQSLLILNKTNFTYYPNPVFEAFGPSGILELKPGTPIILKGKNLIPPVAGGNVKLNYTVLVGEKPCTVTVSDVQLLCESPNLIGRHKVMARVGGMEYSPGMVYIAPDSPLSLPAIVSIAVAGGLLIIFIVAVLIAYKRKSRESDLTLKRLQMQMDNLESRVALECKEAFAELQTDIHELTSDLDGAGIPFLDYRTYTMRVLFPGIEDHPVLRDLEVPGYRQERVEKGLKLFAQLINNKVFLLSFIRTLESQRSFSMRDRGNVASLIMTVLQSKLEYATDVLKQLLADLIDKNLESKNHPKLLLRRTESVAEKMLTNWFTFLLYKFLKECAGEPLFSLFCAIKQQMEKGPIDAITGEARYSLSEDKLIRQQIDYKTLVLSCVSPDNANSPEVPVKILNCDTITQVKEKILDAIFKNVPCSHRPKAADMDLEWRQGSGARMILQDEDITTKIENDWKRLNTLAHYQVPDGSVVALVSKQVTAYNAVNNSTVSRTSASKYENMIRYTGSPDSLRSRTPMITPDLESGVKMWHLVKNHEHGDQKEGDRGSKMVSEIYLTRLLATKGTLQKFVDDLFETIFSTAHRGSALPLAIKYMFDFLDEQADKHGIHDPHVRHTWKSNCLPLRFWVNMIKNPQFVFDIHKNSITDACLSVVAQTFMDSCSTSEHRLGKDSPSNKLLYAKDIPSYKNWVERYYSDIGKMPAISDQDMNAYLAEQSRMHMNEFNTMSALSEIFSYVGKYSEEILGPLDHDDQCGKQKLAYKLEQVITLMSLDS

PIE-FCCS = target: the molecule itself

median fraction correlated (fc) (Plexin A4): 0.08 | median fraction correlated (fc) (Plexin A4ΔSema): 0.23
B1: Plexin A2 (receptor, human, UniProt O75051 35-1894, looked up)
chain: MPQFSTFHSENRDWTFNHLTVHQGTGAVYVGAINRVYKLTGNLTIQVAHKTGPEEDNKSCYPPLIVQPCSEVLTLTNNVNKLLIIDYSENRLLACGSLYQGVCKLLRLDDLFILVEPSHKKEHYLSSVNKTGTMYGVIVRSEGEDGKLFIGTAVDGKQDYFPTLSSRKLPRDPESSAMLDYELHSDFVSSLIKIPSDTLALVSHFDIFYIYGFASGGFVYFLTVQPETPEGVAINSAGDLFYTSRIVRLCKDDPKFHSYVSLPFGCTRAGVEYRLLQAAYLAKPGDSLAQAFNITSQDDVLFAIFSKGQKQYHHPPDDSALCAFPIRAINLQIKERLQSCYQGEGNLELNWLLGKDVQCTKAPVPIDDNFCGLDINQPLGGSTPVEGLTLYTTSRDRMTSVASYVYNGYSVVFVGTKSGKLKKIRADGPPHGGVQYEMVSVLKDGSPILRDMAFSIDQRYLYVMSERQVTRVPVESCEQYTTCGECLSSGDPHCGWCALHNMCSRRDKCQQAWEPNRFAASISQCVSLAVHPSSISVSEHSRLLSLVVSDAPDLSAGIACAFGNLTEVEGQVSGSQVICISPGPKDVPVIPLDQDWFGLELQLRSKETGKIFVSTEFKFYNCSAHQLCLSCVNSAFRCHWCKYRNLCTHDPTTCSFQEGRINISEDCPQLVPTEEILIPVGEVKPITLKARNLPQPQSGQRGYECVLNIQGAIHRVPALRFNSSSVQCQNSSYQYDGMDISNLAVDFAVVWNGNFIIDNPQDLKVHLYKCAAQRESCGLCLKADRKFECGWCSGERRCTLHQHCTSPSSPWLDWSSHNVKCSNPQITEILTVSGPPEGGTRVTIHGVNLGLDFSEIAHHVQVAGVPCTPLPGEYIIAEQIVCEMGHALVGTTSGPVRLCIGECKPEFMTKSHQQYTFVNPSVLSLNPIRGPESGGTMVTITGHYLGAGSSVAVYLGNQTCEFYGRSMSEIVCVSPPSSNGLGPVPVSVSVDRAHVDSNLQFEYIDDPRVQRIEPEWSIASGHTPLTITGFNLDVIQEPRIRVKFNGKESVNVCKVVNTTTLTCLAPSLTTDYRPGLDTVERPDEFGFVFNNVQSLLIYNDTKFIYYPNPTFELLSPTGVLDQKPGSPIILKGKNLCPPASGGAKLNYTVLIGETPCAVTVSETQLLCEPPNLTGQHKVMVHVGGMVFSPGSVSVISDSLLTLPAIVSIAAGGSLLLIIVIIVLIAYKRKSRENDLTLKRLQMQMDNLESRVALECKEAFAELQTDINELTSDLDRSGIPYLDYRTYAMRVLFPGIEDHPVLRELEVQGNGQQHVEKALKLFAQLINNKVFLLTFIRTLELQRSFSMRDRGNVASLIMTGLQGRLEYATDVLKQLLSDLIDKNLENKNHPKLLLRRTESVAEKMLTNWFAFLLHKFLKECAGEPLFMLYCAIKQQMEKGPIDAITGEARYSLSEDKLIRQQIEYKTLILNCVNPDNENSPEIPVKVLNCDTITQVKEKILDAVYKNVPYSQRPRAVDMDLEWRQGRIARVVLQDEDITTKIEGDWKRLNTLMHYQVSDRSVVALVPKQTSSYNIPASASISRTSISRYDSSFRYTGSPDSLRSRAPMITPDLESGVKVWHLVKNHDHGDQKEGDRGSKMVSEIYLTRLLATKGTLQKFVDDLFETLFSTVHRGSALPLAIKYMFDFLDEQADRHSIHDTDVRHTWKSNCLPLRFWVNVIKNPQFVFDIHKGSITDACLSVVAQTFMDSCSTSEHRLGKDSPSNKLLYAKDIPSYKSWVERYYADIAKLPAISDQDMNAYLAEQSRLHAVEFNMLSALNEIYSYVSKYSEELIGALEQDEQARRQRLAYKVEQLINAMSIES
median fraction correlated (fc) (PIE-FCCS): 0.09 | stoichiometry N (PIE-FCCS): 2

— article doi:10.1101/2021.02.18.431813 (bioRxiv, 2021)
